Reference: PMC12516131

Columns and labels:
[1] = target: eGFP–POK2^2083–2440 (Arabidopsis thaliana); test: native gel or EMSA; blue native PAGE, 4–12% Tris-Glycine gels, 100 ng of each protein per lane, anti-GFP western blotting and silver staining; oligomeric state in solution
[2] = target: GMPCPP- and paclitaxel-stabilised microtubules (porcine brain tubulin) (porcine (brain tubulin)); test: single-molecule TIRF microscopy on microtubules; 2 nM eGFP–POK2^2083–2771 in PEM20-based Reaction Buffer on unlabelled stabilised microtubules (IRM); kymographs, landing rate and interaction times of diffusive particles
[3] = target: GMPCPP- and paclitaxel-stabilised microtubules (porcine brain tubulin) (porcine (brain tubulin)); test: TIRF microscopy microtubule binding assay; 10% rhodamine-labelled GMPCPP/paclitaxel microtubules immobilised on glass by anti-β-tubulin antibody; eGFP–POK2 fragment at increasing concentrations in PEM20-based Reaction Buffer (20 mM K-PIPES pH 6.9, 1 mM MgCl2, 1 mM EGTA, casein, 1 mM ATP, 5 mM DTT); intensity per microtubule length; Hill–Langmuir fit

Row | Substance | stoichiometry N [1] | interaction time (subpopulation 1) [2] [s] | interaction time (subpopulation 2) [2] [s] | interaction time (subpopulation 3) [2] [s] | landing rate at 2 nM [2] [µm^−1 min^−1] | Kd [3] [nM]
1 | eGFP–POK2^2083–2440 (domain or fragment) | 2 | – | – | – | – | –
2 | eGFP–POK2^2083–2771–8×His (domain or fragment) | – | 0.9 | 6 | 43 | 0.16 | 106
